From publication PMC11582648 (Nature Communications, 2024)

Biological target: T1, GST-CK1δ (human, UniProt P48730-2 1-409)
T1 sequence: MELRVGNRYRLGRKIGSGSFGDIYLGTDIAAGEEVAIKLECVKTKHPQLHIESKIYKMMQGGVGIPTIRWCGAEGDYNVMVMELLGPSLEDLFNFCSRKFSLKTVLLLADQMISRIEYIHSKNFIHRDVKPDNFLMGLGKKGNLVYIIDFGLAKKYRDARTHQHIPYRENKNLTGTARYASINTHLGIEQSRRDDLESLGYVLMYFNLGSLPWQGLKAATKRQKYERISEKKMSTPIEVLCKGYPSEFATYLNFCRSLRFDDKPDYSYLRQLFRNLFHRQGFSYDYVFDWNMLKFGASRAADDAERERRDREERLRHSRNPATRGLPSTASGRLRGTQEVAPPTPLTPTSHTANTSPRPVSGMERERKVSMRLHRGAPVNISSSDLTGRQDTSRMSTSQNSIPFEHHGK
Experiment: pull-down

B1: His-USP46 (enzyme)
chain: MTVRNIASICNMGTNASALEKDIGPEQFPINEHYFGLVNFGNTCYCNSVLQALYFCRPFRENVLAYKAQQKKKENLLTCLADLFHSIATQKKKVGVIPPKKFISRLRKENDLFDNYMQQDAHEFLNYLLNTIADILQEEKKQEKQNGKLKNGNMNEPAENNKPELTWVHEIFQGTLTNETRCLNCETVSSKDEDFLDLSVDVEQNTSITHCLRDFSNTETLCSEQKYYCETCCSKQEAQKRMRVKKLPMILALHLKRFKYMEQLHRYTKLSYRVVFPLELRLFNTSSDAVNLDRMYDLVAVVVHCGSGPNRGHYITIVKSHGFWLLFDDDIVEKIDAQAIEEFYGLTSDISKNSESGYILFYQSRE
binding result: binds
